In PMC9482650, “Quantitative fragmentomics allow affinity mapping of interactomes” (Nature Communications, 2022):

T1: GRIP1_5, Q9Y3R0
T1 sequence (Q9Y3R0 568-668, limits assumed, looked up): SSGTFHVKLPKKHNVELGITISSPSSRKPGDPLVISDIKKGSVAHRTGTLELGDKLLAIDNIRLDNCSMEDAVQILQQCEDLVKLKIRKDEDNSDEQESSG

T2: DFNB31_2, Q9P202
T2 sequence (Q9P202 274-371, limits assumed, looked up): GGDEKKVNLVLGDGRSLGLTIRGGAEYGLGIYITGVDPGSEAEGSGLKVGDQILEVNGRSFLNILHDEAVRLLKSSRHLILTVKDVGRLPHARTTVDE

T3: NHERF3_1, Q5T2W1
T3 sequence (Q5T2W1 4-100, limits assumed, looked up): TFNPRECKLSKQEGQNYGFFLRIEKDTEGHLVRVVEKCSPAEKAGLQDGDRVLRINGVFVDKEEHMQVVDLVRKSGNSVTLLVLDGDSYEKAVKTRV

T4: MPP2, Q14168
T4 sequence (Q14168 180-250, limits assumed, looked up): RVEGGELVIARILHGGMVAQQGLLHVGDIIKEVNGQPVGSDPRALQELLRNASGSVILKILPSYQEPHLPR

T5: TJP3_3, O95049
T5 sequence (O95049 375-456, limits assumed, looked up): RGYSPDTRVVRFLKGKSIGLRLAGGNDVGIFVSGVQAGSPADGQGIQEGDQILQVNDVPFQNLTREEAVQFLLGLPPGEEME

T6: LNX2_2, Q8N448
T6 sequence (Q8N448 334-432, limits assumed, looked up): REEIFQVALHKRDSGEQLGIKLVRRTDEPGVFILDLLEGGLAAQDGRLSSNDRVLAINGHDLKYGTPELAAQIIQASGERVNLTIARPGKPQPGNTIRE

T7: PCLO, Q9Y6V0
T7 sequence (Q9Y6V0 4491-4600, limits assumed, looked up): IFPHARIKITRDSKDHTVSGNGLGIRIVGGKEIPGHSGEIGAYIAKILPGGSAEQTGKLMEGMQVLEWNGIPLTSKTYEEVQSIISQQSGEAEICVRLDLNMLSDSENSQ

T8: SHANK1, Q9Y566
T8 sequence (Q9Y566 658-767, limits assumed, looked up): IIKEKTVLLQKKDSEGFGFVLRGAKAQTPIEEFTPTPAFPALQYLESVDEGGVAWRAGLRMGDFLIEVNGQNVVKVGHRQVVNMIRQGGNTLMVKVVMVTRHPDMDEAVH

T9: DLG3_3, Q92796
T9 sequence (Q92796 374-475, limits assumed, looked up): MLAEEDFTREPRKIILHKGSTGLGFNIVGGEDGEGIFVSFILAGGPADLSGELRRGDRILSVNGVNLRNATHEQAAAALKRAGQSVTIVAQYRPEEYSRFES

T10: TIAM2, Q8IVF5
T10 sequence (Q8IVF5 885-986, limits assumed, looked up): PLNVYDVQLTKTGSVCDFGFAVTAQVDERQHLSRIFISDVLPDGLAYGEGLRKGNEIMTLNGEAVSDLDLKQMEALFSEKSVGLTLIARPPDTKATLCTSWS

T11: NHERF3_3, Q5T2W1
T11 sequence (Q5T2W1 238-333, limits assumed, looked up): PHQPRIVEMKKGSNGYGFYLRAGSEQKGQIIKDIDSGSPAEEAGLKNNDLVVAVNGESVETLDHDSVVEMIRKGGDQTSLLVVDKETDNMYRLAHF


Key:
Assay in all cases: holdup assay
Set-up in all cases: key: below the threshold = too weak to quantify, mostly under pKd 3.1 to 4
Details in all cases: plain residues with an end cap or a label only (N-terminal biotin on a linker: ado-ado)
[1] = target: T1, GRIP1_5, Q9Y3R0
[2] = target: T2, DFNB31_2, Q9P202
[3] = target: MAGI2_6, Q86UL8
[4] = target: GRID2IP_1, A4D2P6
[5] = target: T3, NHERF3_1, Q5T2W1
[6] = target: PICK1, Q9NRD5
[7] = target: T4, MPP2, Q14168
[8] = target: T5, TJP3_3, O95049
[9] = target: NOS1, P29475
[10] = target: FRMPD2_2, Q68DX3
[11] = target: Inadl_6, Q8NI35
[12] = target: IL16_1, Q14005
[13] = target: DLG4_3, P78352
[14] = target: GORASP1, Q9BQQ3
[15] = target: T6, LNX2_2, Q8N448
[16] = target: T7, PCLO, Q9Y6V0
[17] = target: T8, SHANK1, Q9Y566
[18] = target: T9, DLG3_3, Q92796
[19] = target: NHERF4_1, Q86UT5-2
[20] = target: T10, TIAM2, Q8IVF5
[21] = target: TJP1_3, Q07157
[22] = target: T11, NHERF3_3, Q5T2W1
[23] = target: PTPN3, P26045
[24] = target: DLG1_3, Q12959
[25] = target: Inadl_8, Q8NI35
[26] = target: DLG4_1, P78352
[27] = target: MAGI2_2, Q86UL8
Sequence of MAGI2_2, Q86UL8 (Q86UL8 410-522): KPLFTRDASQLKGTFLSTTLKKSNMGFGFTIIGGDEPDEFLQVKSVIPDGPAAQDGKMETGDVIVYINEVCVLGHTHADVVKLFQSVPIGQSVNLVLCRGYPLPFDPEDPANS

Sequence of PICK1, Q9NRD5 (Q9NRD5 17-115): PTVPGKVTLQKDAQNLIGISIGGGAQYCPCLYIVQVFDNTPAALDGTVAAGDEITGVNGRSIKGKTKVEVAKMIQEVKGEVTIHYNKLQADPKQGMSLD
Sequence of IL16_1, Q14005 (Q14005 210-306): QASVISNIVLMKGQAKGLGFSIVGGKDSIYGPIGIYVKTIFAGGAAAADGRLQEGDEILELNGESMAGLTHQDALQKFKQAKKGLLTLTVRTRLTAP
Sequence of MAGI2_6, Q86UL8 (Q86UL8 1141-1229): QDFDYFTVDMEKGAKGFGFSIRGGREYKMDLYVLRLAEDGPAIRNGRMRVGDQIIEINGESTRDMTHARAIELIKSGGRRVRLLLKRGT
Sequence of NOS1, P29475 (P29475 9-101): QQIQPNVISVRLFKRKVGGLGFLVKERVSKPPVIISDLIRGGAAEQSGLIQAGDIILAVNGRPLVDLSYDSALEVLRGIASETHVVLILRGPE
Sequence of Inadl_6, Q8NI35 (Q8NI35 1058-1167): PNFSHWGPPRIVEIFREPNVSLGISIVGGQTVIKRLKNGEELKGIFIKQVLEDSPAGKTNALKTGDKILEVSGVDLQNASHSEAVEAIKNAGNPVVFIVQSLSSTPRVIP
Sequence of GRID2IP_1, A4D2P6 (A4D2P6 1-87): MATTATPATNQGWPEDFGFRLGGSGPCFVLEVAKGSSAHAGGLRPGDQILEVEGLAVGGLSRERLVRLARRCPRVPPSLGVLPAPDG
Sequence of GORASP1, Q9BQQ3 (Q9BQQ3 1-208): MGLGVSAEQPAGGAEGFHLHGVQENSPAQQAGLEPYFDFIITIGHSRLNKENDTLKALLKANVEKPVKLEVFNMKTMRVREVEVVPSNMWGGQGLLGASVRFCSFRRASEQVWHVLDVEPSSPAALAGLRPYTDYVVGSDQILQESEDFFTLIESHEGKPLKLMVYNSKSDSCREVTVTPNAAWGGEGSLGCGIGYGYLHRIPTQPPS
Sequence of DLG4_3, P78352 (P78352 306-403): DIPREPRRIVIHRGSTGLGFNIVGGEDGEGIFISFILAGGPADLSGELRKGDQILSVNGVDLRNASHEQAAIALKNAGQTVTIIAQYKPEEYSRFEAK
Sequence of FRMPD2_2, Q68DX3 (Q68DX3 944-1038): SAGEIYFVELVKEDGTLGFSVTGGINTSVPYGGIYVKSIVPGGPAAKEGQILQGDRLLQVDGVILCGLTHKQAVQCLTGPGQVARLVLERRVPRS
Sequence of PTPN3, P26045 (P26045 505-587): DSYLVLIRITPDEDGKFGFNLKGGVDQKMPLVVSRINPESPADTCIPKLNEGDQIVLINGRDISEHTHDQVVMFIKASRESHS
Sequence of NHERF4_1, Q86UT5-2 (Q86UT5 other isoform, or with tags, fused parts or gaps): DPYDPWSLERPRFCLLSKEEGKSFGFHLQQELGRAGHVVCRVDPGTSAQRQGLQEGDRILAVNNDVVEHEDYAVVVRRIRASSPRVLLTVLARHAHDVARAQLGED
Sequence of DLG1_3, Q12959 (Q12959 457-571): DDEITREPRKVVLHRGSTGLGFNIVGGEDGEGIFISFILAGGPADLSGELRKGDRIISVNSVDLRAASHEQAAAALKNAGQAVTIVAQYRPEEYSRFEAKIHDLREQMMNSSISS
Sequence of TJP1_3, Q07157 (Q07157 416-512): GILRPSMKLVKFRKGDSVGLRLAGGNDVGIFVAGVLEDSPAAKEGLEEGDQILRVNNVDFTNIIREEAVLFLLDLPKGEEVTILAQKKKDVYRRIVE
Sequence of DLG4_1, P78352 (P78352 62-152): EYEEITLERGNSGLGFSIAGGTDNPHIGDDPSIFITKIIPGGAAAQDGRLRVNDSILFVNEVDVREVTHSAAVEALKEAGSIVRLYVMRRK
Sequence of Inadl_8, Q8NI35 (Q8NI35 1425-1530): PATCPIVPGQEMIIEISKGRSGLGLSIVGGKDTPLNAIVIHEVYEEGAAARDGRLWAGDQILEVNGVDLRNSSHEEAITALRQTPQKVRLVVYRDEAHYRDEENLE

| pKd [1] | pKd [2] | pKd [3] | pKd [4] | pKd [5] | pKd [6] | pKd [7] | pKd [8] | pKd [9] | pKd [10] | pKd [11] | pKd [12] | pKd [13] | pKd [14] | pKd [15] | pKd [16] | pKd [17] | pKd [18] | pKd [19] | pKd [20] | Binder | also measured |
| --- | --- | --- | --- | --- | --- | --- | --- | --- | --- | --- | --- | --- | --- | --- | --- | --- | --- | --- | --- | --- | --- |
| below the threshold | below the threshold | below the threshold | below the threshold | below the threshold | below the threshold | below the threshold | below the threshold | below the threshold | below the threshold | below the threshold | below the threshold | below the threshold | 4.34 | 5.19 | below the threshold |  |  |  |  | KSGKQTMLVV [TRIM29, Q14134;Q14134-2] |  |
| below the threshold | below the threshold | below the threshold | below the threshold | 5.24 | 4.19 | below the threshold | below the threshold | 4.09 | below the threshold | below the threshold | below the threshold | below the threshold | below the threshold | below the threshold | below the threshold | 5.39 | below the threshold | 4.01 | below the threshold | LPAHHNATRL [SLC34A1, Q06495;Q06495-1] | pKd [21]: below the threshold; pKd [22]: 4.47; pKd [23]: 4; pKd [24]: below the threshold |
| below the threshold | below the threshold | below the threshold | below the threshold | below the threshold | 4 | below the threshold | below the threshold | below the threshold | below the threshold | below the threshold | below the threshold | below the threshold | below the threshold | below the threshold | below the threshold | below the threshold | below the threshold | below the threshold | 4.08 | QKNRKAQEDL [CES3, Q6UWW8] | pKd [21]: below the threshold; pKd [22]: below the threshold; pKd [23]: 3.74; pKd [24]: below the threshold; pKd [25]: below the threshold; pKd [26]: below the threshold; pKd [27]: below the threshold |
